For experiment [1], the target named is 14-3-3 protein (endogenous rice OsGF14; isoform not specified). Nature of the experiment: cell-based or functional assay.
The target in experiment [2] is T1, GST-fused Hd3a protein (full-length Hd3a) (rice, UniProt Q93WI9 1-179).
T1 construct: also called GST-Hd3a; not shown: GST (glutathione S-transferase) fusion partner
Nature of the experiment: in vitro GST pull-down, GST-Hd3a on glutathione resin, SDS-PAGE. As to the method:
After that, the resin was washed with a phosphate buffer (pH 6.8) containing 50 mM KCl and 1 mM DTT to remove a free GST-fused protein unbound to the resin. The isolated and purified GST protein bound to the resin was used as a negative control. […] After that, the resins were washed with a phosphate buffer (pH 6.8) containing 50 mM KCl and 1 mM DTT to remove a free GST-GF14c polypeptide unbound to the resins. Each of the bound proteins was eluted with a phosphate buffer (pH 6.8) containing 50 mM glutathione, 50 mM KCl, and 1 mM DTT and confirmed by SDS polyacrylamide electrophoresis.

For experiment [3], the target named is T2, OsGF14b mutant I210A, yeast two-hybrid fusion (rice, UniProt Q7XTE8 1-262).
T2 construct: not shown: yeast two-hybrid fusion partner encoded by pBTM116-GW or pVP16-GW, and its linker
T2 sequence: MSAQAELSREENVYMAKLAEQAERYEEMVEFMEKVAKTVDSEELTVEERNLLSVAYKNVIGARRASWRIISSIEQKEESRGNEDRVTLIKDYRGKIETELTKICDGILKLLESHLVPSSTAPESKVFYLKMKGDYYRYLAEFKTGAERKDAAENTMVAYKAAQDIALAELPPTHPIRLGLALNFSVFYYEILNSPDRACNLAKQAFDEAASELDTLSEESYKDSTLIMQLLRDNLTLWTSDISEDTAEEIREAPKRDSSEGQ
Nature of the experiment: yeast two-hybrid, growth on selective medium. As to the method:
(§1) For an interaction assay, pBTM116 and pVP16 were converted to pBTM116-GW and pVP16-GW, respectively, using a Gateway vector conversion system (Invitrogen) according to the manufacturer's instructions. Yeast cells were grown at 30° C. for 5 days using an SC medium (without uracil, tryptophan, leucine, and histidine), the medium containing added histidine or 1 to 10 mM 3-aminotriazole (+His or +3-AT). The concentration of 3-AT was determined by a bait-prey combination.
(§2) Various mutant proteins were produced by constructing plasmids as described below. […] The PCR-amplified fragments were cloned into a pENTR/D-TOPO cloning vector (Invitrogen) to obtain entry clones.

Experiment [4] addresses T3, OsGF14b mutant F206A, yeast two-hybrid fusion (rice, UniProt Q7XTE8 1-262).
T3 construct: not shown: yeast two-hybrid fusion partner encoded by pBTM116-GW or pVP16-GW, and its linker
T3 sequence: T2 sequence with F206A, A210I
Nature of the experiment: yeast two-hybrid, growth on selective medium. Here is the method: as §1, §2

The target in experiment [5] is T4, OsGF14b mutant E218A, yeast two-hybrid fusion (rice, UniProt Q7XTE8 1-262).
T4 construct: not shown: yeast two-hybrid fusion partner encoded by pBTM116-GW or pVP16-GW, and its linker
T4 sequence: T2 sequence with A210I, E218A
Nature of the experiment: yeast two-hybrid, growth on selective medium. Here is the method: as §1, §2

Experiment [6] addresses T5, OsGF14b mutant Y221A, yeast two-hybrid fusion (rice, UniProt Q7XTE8 1-262).
T5 construct: not shown: two-hybrid fusion partner encoded by pBTM116-GW or pVP16-GW
T5 sequence: T2 sequence with A210I, Y221A
The experiment is described as follows: yeast two-hybrid, growth on selective medium. Here is the method: as §1, §2

In experiment [7] the target is T6, OsGF14b mutant D233A, yeast two-hybrid fusion (rice, UniProt Q7XTE8 1-262).
T6 construct: not shown: two-hybrid fusion partner encoded by pBTM116-GW or pVP16-GW
T6 sequence: T2 sequence with A210I, D233A
The experiment is described as follows: yeast two-hybrid, growth on selective medium. As to the method:
as §1, §2

In experiment [8] the target is T7, OsGF14b (Os04g0462500), full-length, yeast two-hybrid fusion (rice, UniProt Q7XTE8 1-262).
T7 construct: not shown: two-hybrid fusion partner encoded by pBTM116-GW or pVP16-GW
T7 sequence: T2 sequence with A210I
Nature of the experiment: yeast two-hybrid, growth on selective medium. As to the method:
as §1, §2

In experiment [9] the target is T8, OsGF14b mutant R232A, yeast two-hybrid fusion (rice, UniProt Q7XTE8 1-262).
T8 construct: not shown: two-hybrid fusion partner encoded by pBTM116-GW or pVP16-GW
T8 sequence: T2 sequence with A210I, R232A
The experiment is described as follows: yeast two-hybrid, growth on selective medium. Here is the method:
as §1, §2

The target in experiment [10] is T9, Hd3a, full-length, Vn- or Vc-tagged (BiFC) (rice, UniProt Q93WI9 1-179).
T9 construct: it is put first only for listing; not shown: Vn or Vc fragment of Venus (BiFC tag), at the N- or C-terminal
The experiment is described as follows: BiFC (Venus) in rice Oc protoplasts (endogenous 14-3-3 proteins present). Here is the method: (§3) (1) The transformation of rice Oc protoplasts was performed by a method described in Kyozuka and Shimamoto 1991, Plant J. 6, 271 (1994), Non Patent Literature 1, or the like. Fluorescent protein expression vectors having introduced therein various proteins were introduced into a protoplast suspension (2×10⁷ protoplasts/ml) by a PEG method (PEG-mediated method). After incubation at 30° C. for 24 hours, transformed protoplasts were obtained and used for microscopic observation.
(§4) Therefore, the number of cells showing higher values than the above-mentioned values was scored.

Experiment [11] deals with T10, GF14b, full-length, Vn- or Vc-tagged (BiFC) (rice, UniProt Q7XTE8 1-262).
T10 construct: it is put first only for listing; also called OsGF14b; not shown: Vn or Vc fragment of Venus (BiFC tag), at the N- or C-terminal
T10 sequence: T2 sequence with A210I
Nature of the experiment: BiFC (Venus) in rice Oc protoplasts. As to the method: as §3, §4

The target of experiment [12] is T11, GF14c residues 1 to 235 (crystallization construct) (rice, UniProt Q6ZKC0 1-235).
T11 construct: Expressed in E. coli and purified; co-crystallized with Hd3a 6-170; also called 14-3-3 protein
T11 sequence: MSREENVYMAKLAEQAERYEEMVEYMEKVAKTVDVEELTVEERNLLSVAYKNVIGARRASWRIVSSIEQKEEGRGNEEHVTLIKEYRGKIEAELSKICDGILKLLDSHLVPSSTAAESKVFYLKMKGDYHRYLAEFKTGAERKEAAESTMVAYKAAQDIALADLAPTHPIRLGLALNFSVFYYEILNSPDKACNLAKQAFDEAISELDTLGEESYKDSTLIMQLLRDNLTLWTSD
The experiment is described as follows: X-ray crystal structure of the florigen activation complex; peptide soaked into Hd3a-GF14c crystals. As to the method: The crystallization of the complex was performed at 4° C. by a sitting drop method using a mixture of 1 μl of the protein solution (protein concentration: 10 mg/mL) and 1 μl of a precipitant solution (0.1 M HEPES (pH 7.5), 0.2 M ammonium sulfate, and 25% PEG 3350).

We go through seven molecules from patent US20130019345A1 (NATIONAL UNIVERSITY CORPORATION NARA INSTITUTE OF SCIENCE …, published 2013).

Where a chain is given by its changes, count along the chain named. Names may count otherwise. Where no end group is shown, it is not given here. [ ]: non-standard residue; d: D form. pS = N[C@@H](COP(=O)(O)O)C(=O)O

T9 sequence (Q93WI9 whole entry, the tested form may be a part): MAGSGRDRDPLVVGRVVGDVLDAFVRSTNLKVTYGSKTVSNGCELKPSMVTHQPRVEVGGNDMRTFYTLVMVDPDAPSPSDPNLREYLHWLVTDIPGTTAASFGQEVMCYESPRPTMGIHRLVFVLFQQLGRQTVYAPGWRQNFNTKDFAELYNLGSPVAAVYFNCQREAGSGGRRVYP
T1 sequence (Q93WI9 whole entry, the tested form may be a part): as above

Take “Hd3a(R64G/R132A)-GFP (prolC::Hd3a(R64G/R132A)::GFP) (from UniProt Q93WI9 1-179)”: the Days to flowering (days) of transgenic rice in experiment [1] came out at 58.8 days.
Still for that read-out and setting: as for “Hd3a(R64G)-GFP (prolC::Hd3a(R64G)::GFP) (from UniProt Q93WI9 1-179)”, the figure is 44.2 days.
On the same count and under the same terms, under “Hd3a-GFP-fused protein (full-length Hd3a coding region conjugated to GFP) (from UniProt Q93WI9 1-179)” stands 19.6 days.

B1: OsFD1 having a mutation of S192E in a region of positions 147 to 195 in SEQ ID NO: 3, not fused with GST (other)
chain: ARVNNLETEVEQLKQENKMLRVKYEQLRKTVEVPVPVRRTLQRVLEAPF
B1: the binding result in [2] is reported as “no binding”.

B2: OsFD1 (Os09g0540800), full-length, yeast two-hybrid fusion (other)
chain: MAMEDDEDMWANTSSPSASPPRPRGFISTALSLNSTHLQGLLPSSFVDAAASPCHASGNNNGGGDGRNAAPMSSIFFASASYHQQQHHLPAPAPLDGAILPARRFGLDMCAAAAAAPAGVPAAGDRRKRRMIKNRESAARSRARKQARVNNLETEVEQLKQENKMLRVKYEQLRKTVEVPVPVRRTLQRVLSAPF
notes: not shown: two-hybrid fusion partner encoded by pBTM116-GW or pVP16-GW
Turning to B2, the binding result in experiment [3], in [4], in experiment [5], in experiment [6], in [7] and in [8] was “binds” each time. Besides, the binding result in [9] is listed as “binds”.

B3: OsFD1, full-length, Vn- or Vc-tagged (BiFC) (other)
chain: B2 chain
notes: it is put first only for listing; not shown: Vn or Vc fragment of Venus (BiFC tag), at the N- or C-terminal
Take B3: the binding result in experiment [10] and in [11] was “binds” each time.

B4: OsFD1 polypeptide, residues 187 to 195, chemically synthesized (peptide)
peptide: LQRVL[pS]APF
notes: Soaked at 2 mM into Hd3a-GF14c crystals
For B4, the binding result in [12] is reported as “binds”.
